Tests used:
Botrytis cinerea conidia = test: In vitro liquid-based assay (fungal biomass, 96-well plates, Cytation 5); format: cell-based; conditions: co-incubated with conidia for three days, vs untreated control
Experimental: Fungal culture. The Botrytis cinerea was plated each week the culture onto Malt Extract Agar (MEA) from long-term storage on silica stored at 4° C. Three pellets of silica were added to the center of a MEA agar plate and grown at room temperature without parafilm/tape seal for 10-14 days before use; a culture 12 days old was typically used.
Spore and media preparation. A pure culture of B. cinerea was flooded with a 0.01% Triton x-100 solution and conidia scraped free with a sterile hockey stick. The suspension was transferred to two, 1.5 mL centrifuge tubes and centrifuged at 8000 rpm for two minutes. The supernatant was discarded, pelleted spores washed twice with sterile water, then resuspended in sterile water. Conidia were quantified using a hemacytometer and diluted to a final concentration of 5000 conidia/mL stock. A stock solution of 1.25× minimal media was prepared for the assay setup using the components below. Once the stock solution was made, the pH was adjusted to 6.0 using NaOH or KOH, then filter sterilized through a 0.2 um filter tower and vacuum pump and stored at 4° C. The Kao & Michayluk Vitamins (100×) is a filter sterilized stock solution. The stock contains vitamins and amino acids as described by Kao & Michayluk. After filter sterilization, 20 mg of 4-Aminobenzoic acid in 100 ml of solution was added.
Experimental setup. Screening assays were setup in 96-well plates with conidia co-incubated with treatments (controls and dsRNAs) for three days before determining fungal biomass. Each treatment was replicated eight times within a single plate. In each well consisted of 12.5 μl of conidia suspension, 25 μl of the treatment, 12.5 μl of sterile deionized water, and 200 μl of minimal media. Each plate was covered with a breath right film and placed in the percival growth chamber at 23° C. on the shaking platform set to 120 RPM with 24-hour lighting. Plates were incubated for 72 hours before determining fungal growth.
Reading assay plate. Fungal biomass was determined by reading plates with the Cytation 5 machine. The program was set to compile 8 photo slices per well under brightfield microscopy with a 2.5× lens to measure biomass.
Data analysis. Analysis will automatically run on Cytation5 to determine final biomass.
Results are shown in Table 1B representing the average reduction in biomass vs. control for tested sequences across several runs described above.

[1] = system: Botrytis cinerea isolate (B05.10); test: Detached leaf assay (tomato leaflets, lesion size); format: in vivo; conditions: five days post inoculation, vs untreated inoculated control
Experimental: Plant tissue. Tomato plants, variety Brandywine, were grown in the greenhouse for 3 weeks before harvesting the first true leaves for assays. Nodes 2-4 were prioritized for harvest and only lateral leaflets were used for assays. Leaflets of approximately the same size were used each week and were randomized among treatments. Detached leaflets were immediately brought into the lab for treatment and used within 4 hours of harvest. Detached leaflets were kept at 4° C. until they were treated and placed onto a 1% water agar medium for incubation.
Fungal culture. A Botrytis cinerea isolate (B05.10) was preserved on silica for long-term storage and pulled from these tubes stored at 4° C. for growth on a nutritive medium. Three pellets of silica were added to the center of a Malt Extract Agar (MEA) agar plate and grown at room temperature without parafilm/tape seal for ˜14 days, or until abundant conidia formation, before use.
Treatment of leaflets. Leaflets were treated 24 hours before inoculation and applied using an atomizer to get a fine mist of small droplets entirely covering the leaflet. Silwet L-77 was used as a spreader and added for a 0.03% final concentration (Silwet L-77 brand Phyto Technology Laboratories, S7777 Lot #14D7777001 F). The inoculated control was sprayed with the same volume of sterile DI water with Silwet L-77 in the absence of fungicide or experimental material. Leaflets were spray treated by laying them on a paper towel and holding the atomizer ˜6″ away from the leaflet for applications. Treated leaves were placed on a 1% water agar (10 g Bacto Agar, Difco, in 1 L deionized water, sterilized for 30 minutes at 121° C. and poured when reached a temp of 55° C. into 100×20 mm Petri dishes), with lids of the Petri dishes placed back on before putting Petri dishes under plastic bags to maintain humidity before inoculation the following day. Petri dishes of treated leaflets were left on the lab counter until the following day. Each treatment was replicated ten times with each replicate being a single treated leaflet with two inoculation sites, one on each side of the leaf midvein.
Inoculation. The conidial suspension was prepared by pouring a 7% white grape juice solution onto the culture plate, then scraping the plate with a sterile spatula to dislodge the spores and mycelia. The grape juice solution was prepared by mixing Welch's brand organic white grape juice into sterile deionized water. After dislodging the spores and mycelia of the culture, the suspension was poured through two layers of cheesecloth to remove fungal mycelia and catch the conidial suspension in a clean 50 mL conical tube. Approximately 3 uL of TWEEN 20 was added to conidial suspension to prevent sticking to conical tube. The spore concentration was determined using a Neubauer Improved hemocytometer and inoculum was diluted with more 7% grape juice until a spore concentration of 1×10^5 conidia/mL was reached. Inoculum was used to inoculate host tissue within 2 hours of preparation. Each tomato leaflet was inoculated twice, with inoculation sites placed one per side of the leaflet midvein. A 10 μL volume of spore suspension was placed at each inoculation site using a repeater pipette. Special care was taken not to touch the tip to leaflet surface to avoid contamination between treatments.
Incubation. Petri dishes were placed on lunch trays 6 plates high and moved to an incubator. The incubator was humidity controlled and holds at ˜75% relative humidity. The incubator was kept on 12/12 light/dark days and is set to a temperature of 23° C.
Rating. Measurements were taken at five days post inoculation (DPI). Each lesion that developed was measured using electronic calipers in 2 directions perpendicular to each other to help determine lesion diameter.
Data analysis. Data was analyzed using the SAS JMP statistical program (version 13.2.1) with comparisons made to the untreated, inoculated control. […]

[2] = system: Botrytis cinerea B05.10 isolate; test: Greenhouse whole plant assay (tomato 'Lanai', disease severity); format: in vivo; conditions: final rating day (rating #3)
Experimental: Plant Tissue: Tomato seedlings, variety “Lanai”, were seeded then thinned to one plant per pot in an 18 cell tray. […] Plants were grown at a 23° C./17° C. day/night temperature with 10 hours of light each 24-hour period. The RH was ambient and plants were fertilized two times a day every day except for Sunday when they received only water. Plants were grown using Fafard brand medium (70-80% sphagnum peat moss, perlite, vermiculite, dolomite limestone and watering agent) for the entire experiment.
Fungal culture. A Botrytis cinerea B05.10 isolate was maintained, and spores were harvested as previously described for detached leaf assays, except a grape juice additive was not used for inoculum preparation.
Treatment of plants. Whole tomato plants were treated ˜24 hours before inoculation using the spray booth. A 0.07% Silwet L-77 solution was used as a spreader and added for a 0.07% final volume in water (Silwet L-77 brand Phyto Technology Laboratories, S7777 Lot #14D7777001 F). The spray booth deck was set to 20″ above the plant canopy and a twinjet 8002EVS nozzle with 100 mesh filter placed into the spray mechanism. The spray boom was calibrated before treatment application with specs as follows: 50 GPA rate, 1.25 MPH speed, 6′ spray length, single pass, and at 45 psi to get a catch of 133 mL in 10 seconds (+/−6 mL). Each treatment was replicated ten times for each experimental run.
Inoculation. Plants were inoculated using a mist-o-matic applicator, which is pressurized by manual pumping. The inoculum suspension was poured into the mist-o-matic immediately before inoculation in the GH space. The containers were only filled half-way and inoculum was applied evenly to the surface of all foliage with even coverage.
Incubation. Plants were incubated inside of a 40″ tall humidity chamber supported by PVC pipe and covered in 3M translucent plastic. A humidifier was inside the chamber and set to low and continuous humidity (filled with tap water). The temperature was D:24-20° C./N:20-18° C. with 15 hours of light, of which 9 hours was with supplemental lighting. RH was ambient and watering occurred everyday by sub-irrigation with the bench being flooded for 10 minutes before draining.
Rating. Tomato plants were rated three times during the two-week experiment with rating starting four days post-inoculation and occurring every three to four days after the initial rating date. Plants were rated for the number of lesions and disease severity, which is the percentage of the plant that was symptomatic including necrotic lesions, pathogen sporulation, and chlorosis.
Data analysis. […] Percent disease severity (%DS) was determined by the percent area of the tomato foliage with symptoms including lesions, chlorosis, necrosis, and wilting. Disease severity was rated at three dates (Rating #) over the 12-day test period. Treatments were compared to the untreated, inoculated control and a chemical standard. Statistical analysis was done using SAS JMP version 13.2.1 with treatments compared to the untreated, inoculated control and a chemical standard using Tukey-Kramer and student's T tests.

Molecule | Average % Reduction in Biomass (Botrytis cinerea conidia; 25 ppm dsRNA) [%] | Average % Reduction in Biomass (Botrytis cinerea conidia; 150 ppm dsRNA) [%] | Average % Reduction in Lesion Size ([1]; 30 ppm) [%] | Average % Reduction in Lesion Size ([1]; 50 ppm) [%] | % control ([2]; 25 g ai/ha, three runs, four-week-old 'Lanai' tomato plant) [%] | % control ([2]; 8 g ai/ha, two runs, three-week-old 'Lanai' tomato plant) [%] | % control ([2]; 25 g ai/ha, two runs, three-week-old 'Lanai' tomato plant) [%]
GS659: dsRNA trigger targeting B. cinerea SDH (XM_001548300.2_200_pos_342); trigger SEQ ID NO 16, RNA 28, reverse complement 40 (nucleic acid, listed as Botrytis cinerea) sense: UCAGAUGCGAACCAUGGCAUCAGUCGACAGCUCAGUACCUGAAAGUCCUACCGUUUCUCCAUCCCGUCCUGUCGAAUCUGCUUCCAAGACCUCCACUGUCAAGGAACCUGCUGCCGACUCGGAGUCUUUGAUCAAGACAUUCAACAUUUACAGAUGGAACCCAGAUGAGCCAACCAGCAAGCCCCGCAUGCAAUCUUACA antisense: UGUAAGAUUGCAUGCGGGGCUUGCUGGUUGGCUCAUCUGGGUUCCAUCUGUAAAUGUUGAAUGUCUUGAUCAAAGACUCCGAGUCGGCAGCAGGUUCCUUGACAGUGGAGGUCUUGGAAGCAGAUUCGACAGGACGGGAUGGAGAAACGGUAGGACUUUCAGGUACUGAGCUGUCGACUGAUGCCAUGGUUCGCAUCUGA | 12 | 28 | 21.31 | 19.19 | 29 | – | –
GS413: dsRNA trigger targeting B. cinerea NBP35 (XM_001552213.2); trigger SEQ ID NO 15, RNA 27, reverse complement 39 (nucleic acid, listed as Botrytis cinerea) sense: GCAAAAUUCCAUUGUUGCUUUGUAAACAUCCAUCCUACGACUUUAUUAUCUCAUCGAUCAUCCCACAAUUUACAUUUUCCAUUUUACACUCAAUAAACAAUUGAAAAACAAUAUUCUGAGUUGGUCGCAGUAAAUCAUGGCUCCAUCUCUUGAGGAAAGGCCCGAUGCUGUGCAAGACGUCCUCUCAAAUCCUCUCAAAAAUGCUCCCAAACUUGUCGCCCCAGAACCUGAACAUUGUCCCGGUCCAGAAUCCGAAGCGGCGGGAAAGGCAGAUUCUUGCGCGGGCUGUCCAAACCAAGCCAUAUGCGCAUCCGCACCCAAAGGUCCCGAUCCAGAUAUUCCAGCUAUAACUGCACGUCUUGCUGGUAUCAAACAUAAAGUCUUAAUUCUGUCGGGGAAAGGUGGUGUAGGAAAAAGCACAUUUACAACUUUACUUGCACAUGCCUUCGCAACAAAUGAGGACAACACAGUAGGAAUCAU antisense: AUGAUUCCUACUGUGUUGUCCUCAUUUGUUGCGAAGGCAUGUGCAAGUAAAGUUGUAAAUGUGCUUUUUCCUACACCACCUUUCCCCGACAGAAUUAAGACUUUAUGUUUGAUACCAGCAAGACGUGCAGUUAUAGCUGGAAUAUCUGGAUCGGGACCUUUGGGUGCGGAUGCGCAUAUGGCUUGGUUUGGACAGCCCGCGCAAGAAUCUGCCUUUCCCGCCGCUUCGGAUUCUGGACCGGGACAAUGUUCAGGUUCUGGGGCGACAAGUUUGGGAGCAUUUUUGAGAGGAUUUGAGAGGACGUCUUGCACAGCAUCGGGCCUUUCCUCAAGAGAUGGAGCCAUGAUUUACUGCGACCAACUCAGAAUAUUGUUUUUCAAUUGUUUAUUGAGUGUAAAAUGGAAAAUGUAAAUUGUGGGAUGAUCGAUGAGAUAAUAAAGUCGUAGGAUGGAUGUUUACAAAGCAACAAUGGAAUUUUGC | 14 | 53 | 35.58 | 20.66 | – | 34 | 26
